Laboratory results reported in the nanobody polyreactivity screen of Harvey et al. (2022).

Test: yeast display, Sf9 membrane polyspecificity reagent, FACS + sequencing; frameworks hold sequencing errors
In short: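 Polyreactivity labels are assigned by the sorting gate from which each nanobody was recovered. The gates were low and high (top ~1%), set on anti-HA fluorescence for expression and streptavidin fluorescence for reagent binding. Before sorting, galactose-induced (36–48 hours) yeast display cells were stained for 1 hour at 4 °C with 10% biotinylated, detergent-solubilized Sf9 membrane reagent.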

Row | Sequence | polyreactivity (PSR sort gate)
1 | QVQLVESGGGLVQAGGSLRLSCAASGFIFRSYAMGWYRQAPGKERELVAAINSRAGNTYYADSVKGRFTISRDNAKNTVYLQINSLKPEDNAVYYCNAVRHTYGYYSWGQGTQVTVSS | high polyreactivity
2 | QVQLVESGGGLVQAGGSLRLSCAASGFIFRTYAMGWYRQAPRKERELVAAITYSAGSTYYADSVKGRFTISRDNAKNTVYLQMNSLKPEDTAVYYCNVRKTWYGYSVTGRYDYWGQGTQVTVSS | low polyreactivity
3 | QVQLVESGGGLVQAGGSLRLSCAASGFIFRWYAMGWYRQAPGKERELVAANSSGSSTTYADSVKGRFTISRDNAKNTVYLQMNSLKPEDTAVYYCNRGPRIYRYQYDYWGQGTQVTVSS | high polyreactivity
4 | QVQLVESGGGLVQAGGSLRLSCAASGFIFRWYAMGWYRQAPGKERELVASIDSSGTRTYYADSVKGRFTISRDNAKNTVYLQMNSLKPEDTAVYYCNAEPSSLGETDYDYWGQGTQVTVSS | low polyreactivity
5 | QVQLVESGGGLVQAGGSLRLSCAASGFIFRWYTMGWYRQAPGKERELVAAISSSGGTTYYADSVKGRFTISRDNAKNTVYLQMNSLKPEDTAVYYCTTRYPLGGTYTRYPLKGDYWGQGTQVTVSS | high polyreactivity
6 | QVQLVESGGGLVQAGGSLRLSCAASGFIFRYFAMGWYRQAPGKERELVAAISRSGGSTYYADSVKGRFTISRDNAKNTVYLQMNSLKPEDTAVYYCAAKDGRSYYDLSPMDYWGQGSQVTVSS | low polyreactivity
7 | QVQLVESGGGLVQAGGSLRLSCAASGFIFRYNAMGWNRQAPGKERELVARINSGVSTNYADSVKGRFTISRDNAKNTVYLQMNSLKPEDTAVYYCNARVRRGYSRFDYWGQGTQVTVSS | high polyreactivity
8 | QVQLVESGGGLVQAGGSLRLSCAASGFIFRYNAMGWYRQAPGKERELVAAISSGGSTNYADSVKGRFTISRDNAKNTVYLQMNSLKPEDTAVYYCAADVEQYYPLLTFDFWGQGTQVTVSS | low polyreactivity
9 | QVQLVESGGGLVQAGGSLRLSCAASGFIFRYNAMGWYRQAPGKERELVAAISSSGGSTYYADSVKGRFTISRDNAKNTVYVQMNSLKPEDTAVDYCNAYNYGYIGYGYNYWGQGTQVTVSS | high polyreactivity
10 | QVQLVESGGGLVQAGGSLRLSCAASGFIFRYNAMGWYRQAPGKERELVASISYSGARTYYADSVKGRFTISRDNEKNTVYLQMNSLKPEDTAVYYCATGPLSYVRYYYWGQGTQVTVSS | low polyreactivity
11 | QVQLVESGGGLVQAGGSLRLSCAASGFIFRYNTMGWYRQPPGKERELVAAISVSGARTYYADSVKGRFTLSRDNAKNTVYLQMNSLKPEDTAVYYCNRRYPLYSRYNNDYWGQGTQVTVSS | high polyreactivity
12 | QVQLVESGGGLVQAGGSLRLSCAASGFIFRYYAKGWYREAPGKERELVAAITSGGASTYYADSVKGRFRISRDNAKNTVYLQMNSLKPEDTPVYYCAADTSSYSEYDYWGQGTQVTVSS | low polyreactivity
13 | QVQLVESGGGLVQAGGSLRLSCAASGFIFRYYAMGWYIQAPWKERELVAAIRRGRSTYYADSVKGRFTISRDNAKYTVYLQMNSLKPEDTAVDYCAVRLVSRFGISSYDYWGQGTQVTVSS | high polyreactivity
14 | QVQLVESGGGLVQAGGSLRLSCAASGFIFRYYAMGWYRPAPGKERELVATISSGGGTHYADSVKGRFTISRDNAKNTVYLQMNSLKPEDAAVYYCNARGYRRLRTRVDYWGQGTQVTVSS | high polyreactivity
15 | QVQLVESGGGLVQAGGSLRLSCAASGFIFRYYAMGWYRQAPGKERELVAAISGSGGSTYYADSVKGRFTISRDNAKNTVYLQMNSLKPEDTAVYYCNKGRGRVYGIYDYWGQGTQVTVSS | high polyreactivity
16 | QVQLVESGGGLVQAGGSLRLSCAASGFIFRYYAMGWYRQAPGKERELVAAISNNAGRTYYADSVKGRFTISRDNAKNTVYLQMNSLKPEDTAVYYCAARVWTGRKYDYWGQGTQVTVSS | high polyreactivity
17 | QVQLVESGGGLVQAGGSLRLSCAASGFIFRYYAMGWYRQAPGKERELVAAISWSGGSTYYADSVKGRFTISRDNAKNTVYLQMNSLKPEDTAVYYCNAVTTYGEYDYWGHGTQVTVSS | high polyreactivity
18 | QVQLVESGGGLVQAGGSLRLSCAASGFIFRYYAMGWYRQAPGKERELVAAISWSGTRTFYADSVKGRFTISRDNAKNTVYLQMNSLKPEDTAVYYCAAETTGYDSYIQYEYWGQGTQVTVSS | high polyreactivity
19 | QVQLVESGGGLVQAGGSLRLSCAASGFIFRYYAMGWYRQAPGKERELVAAITRGGSTYYADSVKGRFTISRDNAKNTVYLQMNSLKPEDTAVYYCAARLYTQYYYWGQGTQVTVSS | high polyreactivity
20 | QVQLVESGGGLVQAGGSLRLSCAASGFIFRYYAMGWYRQAPGKERELVAGISSSGASTYYADSVKGRFTISRDNAKYTVYLLMNSLKPEDTAVYYCAARRQRDRYGYWGQGTQVTVSS | high polyreactivity
21 | QVQLVESGGGLVQAGGSLRLSCAASGFIFRYYAMGWYRQAPGKERELVARINRSGGSTYYADSVKGRFTISRDNAKNTVYLQMNSLKPEDTAVYYCAKDRTSYYSWYGYWGQGTQVTVSS | high polyreactivity
22 | QVQLVESGGGLVQAGGSLRLSCAASGFIFRYYAMGWYRQAPGKERVLVARITPRGGRTYYADSVKGRFTISRDNAKNTVYLQMNSLKPEDTAVYYCAAVYPVLHEFGYWGQGTQVTVSS | high polyreactivity

Row | Sequence | polyreactivity (PSR sort gate)
23 | QVQLVESGGGLVQAGGSLRLSCAASGFIFRYYAMGWYRQAPGKETELVAAINRGGGTNYADSVKGRFTISRDNAKNTVYLQLNSLKPEDTAVYYCAAVIRTVRERYGYWGQGTQVTVSS | high polyreactivity
24 | QVQLVESGGGLVQAGGSLRLSCAASGFIFRYYDMGWYRQAPGKERELVAAISWRGGRTYYADSVKGRFTISRDNAKNTVYLQMNSLKPEDTAVYYCAAGFSLWTYPKPYGEDYWGQGTQVTVSS | high polyreactivity
25 | QVQLVESGGGLVQAGGSLRLSCAASGFIFRYYTMRWYRQAPGKERELVAVITSGGTTYYADSVKGRFTISRDNAMNTVYLQMNSLKPEDTAVSYCAADYRPRLYGVGVDYWGQGTQVTVSS | low polyreactivity
26 | QVQLVESGGGLVQAGGSLRLSCAASGFIFSDYAMGWYRQAPGKERELVAGISDSGGDTYYADSVKGRFTISRDNAKYTVYFQMYSLKPDDTAVYYCAADVELWVFRGQQYDYWGQGTQVTVSS | low polyreactivity
27 | QVQLVESGGGLVQAGGSLRLSCAASGFIFSFYAMGWYRQAPGKESELVAAITSSGATTYYADSVKGRFTISRDNAKNTVYLQMNSLKPVDTAVYYCNAVYRRDTGYYRYYYWGQGTQVTVSS | high polyreactivity
28 | QVQLVESGGGLVQAGGSLRLSCAASGFIFSIYALGWYRQAPGKERELVAAISKSGGRTYYADSVKGRFTISRDNAKNTVYLQMNSLKPEDTAVYYCAVDSYYKYDYWGQGTQVTVSS | high polyreactivity
29 | QVQLVESGGGLVQAGGSLRLSCAASGFIFSIYAMGLYRQAPGTERELVAGIDNGGGTYYADSVKGRFTISRDNAKNTVYLQMNSLKPEDTAVYYCAADTYSIGELYDYWGQGTQVNVSS | low polyreactivity
30 | QVQLVESGGGLVQAGGSLRLSCAASGFIFSKNAMGWYRQAPGKERELVAAISTRGGSTYYADSVKGRFTISRDNAKNTVYLQMNSLKPEDTAVYYCNKEWYPYKHNYWGQGTQVTVSS | low polyreactivity
31 | QVQLVESGGGLVQAGGSLRLSCAASGFIFSNNAMGWYRQAPGKERELVASISSSSRTYYADSVKGRFTISRDNAKNTVYLQMNSLKPEDTAVYYCAAVFRWWGTRVDYWGQGTQVTVSS | high polyreactivity
32 | QVQLVESGGGLVQAGGSLRLSCAASGFIFSNYAMGWYRQAPGKERELVAAISWSGTRTYYADSVKGRFTISRDNAKNTVYLQMNSLKPEDTAVYYCAAYGVYLYDYWGQGTQVTVSS | low polyreactivity
33 | QVQLVESGGGLVQAGGSLRLSCAASGFIFSQYAMGWYRQAPGKERELVAAISYSGGSTYYADSVKGRFTISRDNAKNTVYLQMNSLKPEDTAVYYCAVSGRSYYRSDYWGQGTQVTVSS | high polyreactivity
34 | QVQLVESGGGLVQAGGSLRLSCAASGFIFSRNAMGWYRQAPGKERELVAVISTRGGSTYYADSVKGRFTISRDNAKNTVYLQMNSLKPEDTAVYYCAARRTRGYEYWGQGTQVTVSS | high polyreactivity
35 | QVQLVESGGGLVQAGGSLRLSCAASGFIFSRNAMGWYRQAPGKERELVDRISRSGGRTYYADSVKGRFTISRDNAKNTVYLQMNSLKPEDTAVYYCATDHVRQSPYDYWGQGTQVTVSS | high polyreactivity
36 | QVQLVESGGGLVQAGGSLRLSCAASGFIFSRNVMGWYRQAPGKERELVAAISRSGGSTYYADSVKGRFTISRDNAKNTVYLQMNSLKPEDTAVYYCAASRINYVYLLKGDYWGQGTQVTVSS | high polyreactivity
37 | QVQLVESGGGLVQAGGSLRLSCAASGFIFSRYAMGWARQAPGKERELVAAIRFSGSMTYYADSVKGRFTISRDTAKNTVYLQMNSLKPEDTAVYYCAAALTYFKRVYYWGQGTQVTVSS | high polyreactivity
38 | QVQLVESGGGLVQAGGSLRLSCAASGFIFSRYAMGWYRQAPGKERELVAYITRRGGRTFYADSVKGRFTISRDNAKNTVYLQMNSLKPEDTAVYYCGADAYGLTLFYVFSYDYWGQGTQVTVSS | high polyreactivity
39 | QVQLVESGGGLVQAGGSLRLSCAASGFIFSRYTMGWYRQAPGKERELVAAISKRGGSTYYADSVKGRFTISRDNAKNTVYLQMNSLKPEDTAVYYCAADRLPSGSLVEYWGQGTQVTVSS | high polyreactivity
40 | QVQLVESGGGLVQAGGSLRLSCAASGFIFSRYTMGWYRQAPGKERELVAAITWSGGSTYYADSVKGRFTISRDNAKNTVYLQMNSLKPVDTAVYYCAAARISVVQGDYWGQGTQVTVSS | high polyreactivity
41 | QVQLVESGGGLVQAGGSLRLSCAASGFIFSSNAMGWYRQAPGKERELVARITWSDGSTYYADSVKGRFTISRDNAKNTVYLQMNSLKPEDTAAYYCAKGRDATHYEYYLYSMDYWGQGTQVTVSS | low polyreactivity
42 | QVQLVESGGGLVQAGGSLRLSCAASGFIFSSYAMGWYIQAPGKERELVAAISRSGGRTYYADSVKGRFTISRDNAKNTVYLKMNSLKPEDTAVYYCAAKWLGTAGDDYWGQGTQVTVSS | high polyreactivity
43 | QVQLVESGGGLVQAGGSLRLSCAASGFIFSSYAMGWYRQAPGKERELVAAITSRGGSTYYADSVKGRFTISRDNAKNTVYLQMNSLKPEDTAVYYCNAVVTKYAKSRFLYYYWGQGTQVTVSS | high polyreactivity
